This note sets out measurements from paper PMC8938434, “Atomic resolution dynamics of cohesive interactions in phase-separated Nup98 FG domains” (Nature Communications, 2022).

For data set [1], the target named is wild-type Tetrahymena thermophila MacNup98A (Mac98A) FG domain (Tetrahymena thermophila). Nature of the data set: partition of fluorescent probes into FG particles (confocal laser scanning microscopy); FG particles mixed with permeation probes (2 μM Alexa488-labelled NTF2 and 10 μM mCherry in assay buffer, 15 μl + 15 μl); 20 mM NaPi pH 6.8, 150 mM NaCl, 5 mM DTT; 21 °C; partition coefficient = signal inside FG phase: signal in buffer.

Data set [2] concerns the molecule itself. In words: MAS NMR, 1H-13C cross-polarization of the FG phase; FG phase from u-[13C,15N]-labelled protein, 36 °C, 20 kHz MAS; cross-polarization against direct excitation.
In another data set the target is T1, prf.GLFG_(52 × 12).
T1 construct: engineered from the Tetrahymena thermophila MacNup98A FG domain; plasmid pSNG064; Isotope-labelled (15N, 13C) for NMR; also called perfect repeat; source: E. coli, inclusion bodies, Ni(II) chelate column, tag cut off with bdSENP1 protease, lyophilized; not shown: His14-ZZ-scSUMO, N-terminal, cleaved
T1 chain: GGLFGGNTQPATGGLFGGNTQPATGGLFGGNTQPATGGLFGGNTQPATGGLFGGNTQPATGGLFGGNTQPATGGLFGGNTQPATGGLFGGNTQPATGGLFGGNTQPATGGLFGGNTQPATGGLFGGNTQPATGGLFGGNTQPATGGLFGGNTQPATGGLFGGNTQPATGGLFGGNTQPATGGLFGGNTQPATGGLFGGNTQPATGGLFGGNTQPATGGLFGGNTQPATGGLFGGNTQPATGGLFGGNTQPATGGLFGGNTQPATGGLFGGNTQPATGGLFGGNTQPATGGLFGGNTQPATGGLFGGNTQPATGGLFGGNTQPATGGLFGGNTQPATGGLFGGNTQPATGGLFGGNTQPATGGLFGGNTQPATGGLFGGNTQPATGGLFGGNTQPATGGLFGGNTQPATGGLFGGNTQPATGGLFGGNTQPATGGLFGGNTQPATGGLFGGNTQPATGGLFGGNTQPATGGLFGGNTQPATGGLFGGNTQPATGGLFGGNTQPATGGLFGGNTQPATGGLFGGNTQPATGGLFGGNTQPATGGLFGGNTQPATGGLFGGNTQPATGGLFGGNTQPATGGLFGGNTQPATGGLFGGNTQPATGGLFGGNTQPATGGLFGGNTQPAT
In words: partition of Atto488-coupled FG domains into FG particles (confocal laser scanning microscopy); 20 μM unlabelled prf.GLFG_(52 × 12) premixed with 0.5 μM Atto488-labelled species (GAFG: 3 μM); 20 mM NaPi pH 6.8, 150 mM NaCl, 5 mM DTT; 21 °C; apparent partition coefficient = Atto488 signal IN: OUT of the FG particles. The following applies: both partners purified.

On to “nuclear transport receptor NTF2 (labelled with Alexa Fluor 488) (from UniProt P61970 1-127) (natural protein)”, for which, in data set [1], the partition coefficient came out at 2000.

B1: Pro-free prf.GLFG_(52 × 12) (other)
chain: GGLFGGATNSQTGGLFGGATNSQTGGLFGGATNSQTGGLFGGATNSQTGGLFGGATNSQTGGLFGGATNSQTGGLFGGATNSQTGGLFGGATNSQTGGLFGGATNSQTGGLFGGATNSQTGGLFGGATNSQTGGLFGGATNSQTGGLFGGATNSQTGGLFGGATNSQTGGLFGGATNSQTGGLFGGATNSQTGGLFGGATNSQTGGLFGGATNSQTGGLFGGATNSQTGGLFGGATNSQTGGLFGGATNSQTGGLFGGATNSQTGGLFGGATNSQTGGLFGGATNSQTGGLFGGATNSQTGGLFGGATNSQTGGLFGGATNSQTGGLFGGATNSQTGGLFGGATNSQTGGLFGGATNSQTGGLFGGATNSQTGGLFGGATNSQTGGLFGGATNSQTGGLFGGATNSQTGGLFGGATNSQTGGLFGGATNSQTGGLFGGATNSQTGGLFGGATNSQTGGLFGGATNSQTGGLFGGATNSQTGGLFGGATNSQTGGLFGGATNSQTGGLFGGATNSQTGGLFGGATNSQTGGLFGGATNSQTGGLFGGATNSQTGGLFGGATNSQTGGLFGGATNSQTGGLFGGATNSQTGGLFGGATNSQTGGLFGGATNSQTGGLFGGATNSQT
notes: also called thioflavin-T-positive, proline-free variant of prf.GLFG_(52 × 12)
Regarding B1, the binding result in data set [2] is given as “binds”.

B2: Atto488-coupled GLLG//L_(52 × 12) (other)
chain: GSGLLGNTGLAPAGGLLGNTQLQQGGGLLGQPQLTQGGGLLGQTGLTTGGGLLGGATLTAPGGLLGGGGLNPTGGLLGGNNLQQTGGLLGQGTLQTGGGLLGAPQLNQGGGLLGGGTLTTGGGLLGANTLTGGGGLLGGPSLPTTAGLLGSNNLTTGGGLLGQPALTNNGGLLGGQTLNQASGLLGANNLPPTNGLLGNNNLPQTAGLLGGATLTGNTGLLGGANLTGGGGLLGNNTLNPTGGLLGATNLAGGGGLLGGGALTGGGGLLGGGNLQTGGGLLGTANLTTAGGLLGGGNLQPQNGLLGNNNLPATGGLLGQTNLAAPQGLLGGTNLNAASGLLGQKPLSANGVLTKPNEKNLCYAISNGTDFCIFELALTQRKLVKAGQLKPGAQAGGLLGQPALNTQGGLLGGGGLATTPGLLGGAQLNTTGGLLGGQNLQAGGGLLGAPNLAAATGLLGAGNLNTQGGLLGAKPLATGGGLLGQPALTQAGGLLGNTALPAGGGLLGGATLTPGGGLLGGNTLATGGGLLGGNTLGATGGLLGGQQLNNQGGLLGNTNLNTGGGLLGGATLTTGGGLLGGSTLATGGGLLGGASLPAAGGLLGGAALQQNSGLLGGATLGQTGGLLGGATLQQGGGLLGQTALNPGGGLLGAANLTTQPGLLGGNNLAATTSC
modifications: Atto488 (coupled)
Consider B2, for which the partition coefficient with prf.GLFG_(52 × 12) is 110.
